In patent US20200148778A1 (JIANGSU HENGRUI MEDICINE, published 2020):

Assays:
[1] = molecular target: T1, His-tagged human CD40 (h-CD40-his) recombinant protein (human, UniProt P25942 21-193); test: ELISA, human CD40-his coated
T1 construct: range 21-193; Bought from Acrobiosystems; also called Human CD40-his; not shown: His tag
Method: (§1) Binding properties of anti-CD40 antibodies was detected by ELISA assay. The CD40 recombinant protein with his-tag was directly used for coating, after the antibody was added, the binding activity of the antibody to the antigen—was detected by adding a secondary antibody (HRP-conjugated anti-antibody Fc antibody) and HRP substrate TMB.
(§2) A 96-well microtiter plate was coated with 100 μl/well of human or rhesus CD40-his protein at a concentration of 0.5 μg/ml and incubated overnight at 4° C. The plate was rinsed three times with rinsing buffer, 250 μl per well. For each rinsing, the plate was shaken for 10 seconds to ensure sufficient cleaning. 200 μl blocking solution was added in each well and incubated for 2 hours at room temperature. Then the plate was washed three times with 250 μl per well. The plate was shaken for 10 seconds in each rinsing to ensure sufficient cleaning. 100 μl of anti-CD40 antibody to be tested diluted in dilution was added to each well, and incubated for 1 hour at room temperature, then rinsing the plate for three times with 250 μl of rinsing buffer per well. 100 μl of HRP-labeled goat anti-human IgG secondary antibody diluted 1:20000 with diluent was added to each well, and incubated for 1 hour at room temperature. Then the plate was washed three times with 250 μl per well. 100 μl of TMB was added to each well and allowed to react for 15 minutes in the dark. 50 μl of 0.16 M sulfuric acid per well was added. The OD value was measured at 450 nm by Thermo MpμltiSkanFc plate reader and the binding EC50 value of the CD40 antibody to […] was calculated.

[2] = molecular target: T2, His-tagged mouse CD40 (m-CD40-his) recombinant protein (mouse, UniProt P27512 24-193); test: ELISA, CD40-his coated
T2 construct: range 24-193; Bought from Acrobiosystems; also called Mouse CD40-his; not shown: His tag

[3] = molecular target: T3, His-tagged rhesus CD40 (rhesus-CD40-his) recombinant protein (rhesus, UniProt F6SNI1 21-193); test: ELISA, rhesus CD40-his coated
T3 construct: range 21-193; Bought from Acrobiosystems (# CD0-052H7); not shown: His tag
Method: as §1, §2

[4] = molecular target: human CD40 on HEK293 cells stably transfected with the human CD40 gene (HEK-Blue CD40L cells) (human, UniProt P25942 21-277); test: cell-based or functional assay
[5] = molecular target: T1, His-tagged human CD40 (h-CD40-his) …; test: Biacore X100, antibody captured by anti-human antibody on CM5 chip, CD40 antigen as analyte, 1:1 model
Description: (§3) Human antibody captured antibody was covalently coupled to CM5 biosensor chip of Biacore instrument (Biacore X100, GE) according to the method described in the description of Human Antibody Capture Kit (Cat. BR-1008-39, GE), thereby capturing a certain amount of chimeric or humanized antibodies to be tested based on affinity. Then a series of concentration gradient CD40 antigens (purchased from Acrobiosystems) flowed through the surface of chip, and Biacore X100 (GE) was used to detect the reaction signals in real time to obtain the binding and dissociation curves. After the completion of each cycle of dissociation, the biochip was rinsed and regenerated with the regeneration solution provided by the Human Antibody Capture Kit. Amine Coupling Kits (Cat. BR-1000-50, GE) were purchased from GE, and the buffer solution HBS-EP+buffer 1× (pH 7.4), which was obtained from HBS-EP+buffer 10× (Cat. BR-1006-69, GE) by dilution with D. I. Water.

[6] = molecular target: T1, His-tagged human CD40 (h-CD40-his) …; test: Biacore, affinity to human CD40
Description: as §3

T2 sequence (P27512 24-193 limits assumed): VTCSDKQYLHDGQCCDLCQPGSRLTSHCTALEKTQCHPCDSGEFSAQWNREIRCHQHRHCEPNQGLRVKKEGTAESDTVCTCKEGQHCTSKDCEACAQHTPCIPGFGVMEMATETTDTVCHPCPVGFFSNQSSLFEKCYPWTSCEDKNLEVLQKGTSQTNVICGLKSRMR
T1 sequence (P25942 21-193 limits assumed): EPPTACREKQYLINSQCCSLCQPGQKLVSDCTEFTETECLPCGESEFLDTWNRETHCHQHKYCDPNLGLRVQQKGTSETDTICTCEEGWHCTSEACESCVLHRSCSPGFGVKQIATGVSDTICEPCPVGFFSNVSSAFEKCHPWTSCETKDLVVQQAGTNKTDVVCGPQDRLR
Chain of human CD40 on HEK293 cells stably transfected with the human CD40 gene (HEK-Blue CD40L cells) (P25942 21-277): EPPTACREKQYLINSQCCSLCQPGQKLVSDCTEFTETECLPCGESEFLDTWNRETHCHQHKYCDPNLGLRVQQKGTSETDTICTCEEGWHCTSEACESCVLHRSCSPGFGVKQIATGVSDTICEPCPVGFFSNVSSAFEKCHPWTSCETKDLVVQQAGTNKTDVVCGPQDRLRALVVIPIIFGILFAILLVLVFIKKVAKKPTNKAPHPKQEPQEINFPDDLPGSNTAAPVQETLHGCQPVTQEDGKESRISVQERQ

B1: mouse hybridoma anti-human CD40 antibody 1D9 (antibody, V domains shown)
VH: QVRLQQSGAELVRPGTSMRVSCKASGYAFTNYLINWVKQRPGQGLEWIGILNPGSGGTNYNENFKDKATLTADKSSNTAYMQLSSLTSEDSAVYFCIRGSPGFAYWGQGTLVTVSA
VL: DIQMTQTTSSLSASLGDRVTISCRASQDINIYLNWYQQKPDGTVKLLIYSTSGLHSGVPSRFNGSGSGTDYSLTISNLEQEDIATYFCQQGYTLPYTFGGGTKLEIK
notes: Murine hybridoma antibody
EC50 [1]: 10 ng/mL
binding result [2]: no binding
EC50 [3]: 9.81 ng/mL
HEK293-CD40L cells activity assay EC50 [4]: 14.5 ng/mL

B2: mouse hybridoma anti-human CD40 antibody 2H6 (antibody, V domains shown)
VH: QVQLQQSGAELVRPGTSVKVSCKASGYAFSDYLIEWAKQRPGQGLEWIGVINPGSGGSNYNEKIKDRATLTADKSSSTAYMQLSSLTSEDSAVYFCARGGGGFTYWGQGTLVTVSA
VL: EIQLTQTTSSLSASLGDRVTISCRASQDISNYLNWYQQKPDGTIKLLLNFASRLHSGVPSRFSGSGSGTDFFLTISNLEQDDIATYFCQQGSTLPWTFGGGTKLEIK
notes: Murine hybridoma antibody; also called mouse mAb 2H6
EC50 [1]: 7.06 ng/mL
binding result [2]: no binding
EC50 [3]: 7.21 ng/mL
HEK293-CD40L cells activity assay EC50 [4]: 15.1 ng/mL

B3: mouse hybridoma anti-human CD40 antibody 9E5 (antibody, V domains shown)
VH: QVQLQQPGADLVKPGASVKMSCKASGYILTTYWITWVKQRPGQGLEWIGDIHPGSGSTKYNEKFKSKATLTVDTSSSTAYMQLTRLSSEDSAVYYCARRDYWGQGTTLTVSS
VL: DVLMTQSPLSLPVSLGDQASISCRSSQNIVNSQGNTYLEWYLQKPGESPKLLIYKVTNRFSGVPDRFSGSGSGTDFTLKISRVEAEDLGVYYCFQASLVPWTFGGGTKLEIK
notes: Murine hybridoma antibody; also called mouse 9E5
EC50 [1]: 6 ng/mL
binding result [2]: no binding
EC50 [3]: 6.7 ng/mL
HEK293-CD40L cells activity assay EC50 [4]: 17.1 ng/mL

B4: mouse hybridoma anti-human CD40 antibody 14C10 (antibody, V domains shown)
VH: QVQVQQSGAELVRPGTSVKVSCKASGYAFTNYLIEWVKQRPGQGLEWIGVINPEFGGTNYNEKFKGKATLTADKSSSTAYMQLSSLTSEDSAVYFCARGGGGFTYWGQGTLVTVSA
VL: HIQMTQTTSSLSASLGDRVTISCRASQDISSHLNWYQQKPDGTVKLLISYTSRLHSGVPSRFSGSGSGADYSLTISNLEQEDIATYFCQQGNTLPWTFGGGTKLEIK
notes: Murine hybridoma antibody
EC50 [1]: 8.81 ng/mL
binding result [2]: no binding
EC50 [3]: 9.49 ng/mL
HEK293-CD40L cells activity assay EC50 [4]: 10.9 ng/mL

B5: mouse hybridoma anti-human CD40 antibody 38B4 (antibody, V domains shown)
VH: QVRLKQSGAELVRPGASVKVSCKASGYTFTDYYINWVKQRPGQGLEWIAGIYPGTGNTYYNEKFKGKATLTAERSSSTAYMQLTSLTSEDSAVYFCTRRGLPSLCFDYWGQGTTLTVSS
VL: DFQMTQTTSSLSASLGDRVTISCSASQGISNYLNWYQQKPDGTVKLLIYYTSSLHSGVPSRFSGSGSGTDYSLTISNLEPEDIATYYCQQYSKLPPTFGGGTKLEIK
notes: Murine hybridoma antibody
EC50 [1]: 12.9 ng/mL
binding result [2]: no binding
EC50 [3]: 11.8 ng/mL
HEK293-CD40L cells activity assay EC50 [4]: 36.5 ng/mL

B6: human-mouse chimeric antibody 2H6-C (antibody, V domains shown)
VH: QVQLQQSGAELVRPGTSVKVSCKASGYAFSDYLIEWAKQRPGQGLEWIGVINPGSGGSNYNEKIKDRATLTADKSSSTAYMQLSSLTSEDSAVYFCARGGGGFTYWGQGTLVTVSA
VL: EIQLTQTTSSLSASLGDRVTISCRASQDISNYLNWYQQKPDGTIKLLLNFASRLHSGVPSRFSGSGSGTDFFLTISNLEQDDIATYFCQQGSTLPWTFGGGTKLEIK
notes: Variable regions of murine 2H6 ligated to the constant region of human antibody IgG1; made in HEK293 cells
EC50 [1]: 4.56 ng/mL
Kd [5]: 3.98 nM

B7: human-mouse chimeric antibody 9E5-C (antibody, V domains shown)
VH: QVQLQQPGADLVKPGASVKMSCKASGYILTTYWITWVKQRPGQGLEWIGDIHPGSGSTKYNEKFKSKATLTVDTSSSTAYMQLTRLSSEDSAVYYCARRDYWGQGTTLTVSS
VL: DVLMTQSPLSLPVSLGDQASISCRSSQNIVNSQGNTYLEWYLQKPGESPKLLIYKVTNRFSGVPDRFSGSGSGTDFTLKISRVEAEDLGVYYCFQASLVPWTFGGGTKLEIK
notes: Variable regions of murine 9E5 ligated to the constant region of human antibody IgG1; made in HEK293 cells
EC50 [1]: 1.35 ng/mL
Kd [5]: 2.68 nM

B8: humanized anti-CD40 antibody hu2H6 (H1b heavy chain and L1c light chain) (antibody, human IgG1, kappa, V domains shown)
VH: QVQLVQSGAEVKKPGSSVKVSCKASGYAFSDYLIEWVRQAPGQGLEWMGVINPGSGGSNYNEKIKDRVTLTADKSTSTAYMELSSLRSEDTAVYYCARGGGGFTYWGQGTLVTVSS
VL: DIQLTQSPSSLSASVGDRVTITCRASQDISNYLNWYQQKPGKTIKLLLNFASRLHSGVPSRFSGSGSGTDFTFTISSLQPEDIATYYCQQGSTLPWTFGGGTKVEIKR
notes: the suffix -11 is not explained; Human IgG1/kappa; also called Hu2H6-11
EC50 [1]: 3.68 ng/mL
Kd [5]: 11.2 nM
EC50 [3]: 2.95 ng/mL

B9: humanized anti-CD40 antibody hu9E5 (H1c heavy chain and L1a light chain) (antibody, human IgG1, kappa, V domains shown)
VH: QVQLVQSGAEVKKPGASVKVSCKASGYILTTYWITWVRQAPGQGLEWMGDIHPGSGSTKYNEKFKSRVTLTVDTSISTAYMELSRLRSEDTAVYYCARRDYWGQGTTVTVSS
VL: DIVMTQSPLSLPVTPGEPASISCRSSQNIVNSQGNTYLEWYLQKPGQSPQLLIYKVTNRFSGVPDRFSGSGSGTDFTLKISRVEAEDVGVYYCFQASLVPWTFGGGTKVEIKR
notes: the suffix -25 is not explained; Human IgG1/kappa; also called Hu9E5-25
fold of affinity against the Alligator reference [6]: 9 times
fold of affinity against the Pfizer reference [6]: 3 times
EC50 [1]: 1.65 ng/mL
Kd [5]: 5.3 nM
EC50 [3]: 1.66 ng/mL
